# Data reported in the DeepSol protein solubility set.
# Assay: soluble on expression in E. coli; label from the status in PepcDB or PDB records
row,Sequence,soluble on expression in E. coli
1,MAPPTPHLAVRGSDGTLLLHGPPNCQESSAFQRDDRQGRYMTFSNDGTLFAWCNGSQVTVLKVPSGDLVKSFDLPKTTALEFSPLNKVLATWQQYTKTQDNPQGEANLQLWDLQTGACMKAFYQKKMTGWCPSWADDESISVRNVNNELHFFENNNFETIANKLHLQKVSEFALSPGSQPSKVAVYVPGSKGAPSFVRLYQYPNFGGPTCALANKSFFKADKVNMLWNKKATAVLVTASTEVDKTGASYYGEQTLHYVATNGESAVVQLPKNGPIYDVSWSPNSTEFCVVYGFMPAKATVFNNKCESVFDFGTGPRNAAFYSPQGHILVLAGFGNLRGQMEVWDVKKYKQVSKPQAEDTTHFSWCPDGEHIVTATCSPRLRASNGYKIWHYTGTVLYKHETPSGKELWEVLWQPFPAGVFPERAVKYQALPSELGSTEAKPAQAYRPPALRNKPQTASSKLHEEEPPQNMKPGAAGEKQPSKAALKNQKRREAKKAAKQENKPDEAPPPAADPAPVSHVTSSCGDPETDKKIKNLKKKLKAIDELKEQQAAGKVMQKNQLEKMQKEAQLLKELEDLELGL,soluble
2,MAPSRRERERERRREQIIRAAEKAFFARGYDRVTMDEIAEEAEVNKALLYYYFKNKESLFFAVNLYGVRILHSMYRRCLELDTDGYGKVRAMVEALYSFSKEHPDYFRIYCYSGTERFELSESEDAREIVDLRTGMWRLMVEAIMEGMNDGSIRSDLDPVELSIYIHTLAINALNLDFTSRMVLEARNISRDRFWEDLEVFLESALRP,not soluble
3,MAPTVERKNINLAPLKAAGVPIFFIVGGPGSGKGTQCDKIVAKYGLTHLSSGDLLRDEVKSGSPRGAQLTAIMESGALVPLEVVLDLVKEAMLKAIEKGSKGFLIDGYPREVAQGQQFESEIQEAKLVLFFDVAEETLVKRLLHRAQTSGRADDNADTIKKRLHTFVTSTAPVVDYYESKGKLVRINAEGSVDDIFAVVVANLDKATSKL,soluble
4,MAQERPSCAVEPEHVQRLLLSSREAKKSAYCPYSRFPVGAALLTGDGRIFSGCNIENACYPLGVCAERTAIQKAISEGYKDFRAIAISSDLQEEFISPCGACRQVMREFGTDWAVYMTKPDGTFVVRTVQELLPASFGPEDLQKIQ,soluble
5,MAQFESGVKYVPYSQEQVFNKLSDLSNLESVRDKLADKVQGMEFDSDSLSFTVQGISITLRIIEREPYKCVKFESEKSPVPMNLWIQILPVEAGQAKLKVTIRAEVNMFMKAMVAKPLQDGVDKLAEMLSMIPYLEHHHHHH,soluble
6,MAQGTVEARHGALDEAALGIGRWRWDLRSQELVWSEEERAIFGLAPGAPVPGFAAFSAMIHPDDRARVVAAVSETLAQRRLRHSIGFRILRPDGTMRQILSHGRLVMGLDGKPISLEGVDLDLT,not soluble
7,MAQINFEGLRELHDCVNYLLHHCPKTRESLSQQGQEKWTEQVSEASLRMLDICNVSKDVMTLVKHSLQDLQLTLRGNESSDVNEKIAAYNRYKNKLKKETLKCLNCLKNMKGNEGRVAMPIEQNLLFVTEVLKEVRRVVVTMVESLFSLGCIPWLEKRSSKGSLSSIFSIRSSYLLDDEWDETAVQSATTRLEAAEITVVELEIELESIFRRLIQTRVSLLNILTN,soluble
8,MAQKILVEQVVKRKAIVVQPKDTVDRVAKILSRNKAGSAVVMEGDEILGVVTERDILDKVVAKGKNPKEVKVEEIMTKNPVKIEYDYDIEDVIELMTEKGVRRVLVTKFGKPIGFVTAADILAALASHNHEEEEEEREEESEVYGICEVCGQYGALYKVYHEGRELWVCETCKDLIEGR,soluble
9,MAQNNENALPDITKSITLEAPIQKVWETVSTSEGIAKWFMPNDFQLKEGQEFHLQSPFGPSPCKVLAVQAPTELSFEWDTEGWVVTFQLEDLGEKTGFTLIHSGWKEPNEVIGKANEKSSVVRGKMDGGWTGIVNERLRKAVEELEHHHHHH,soluble
10,MAQPIVVAALYKFVTLEDYVNLREPLLQAMLDNGIKGTLLIAEEGINGTVSGSREGIDGLLAWLKNDPRMVDIDHKESYCDEQPFYRTKVKLKKEIVTLGVPGVDPNKKVGTYVEPQDWNALISDPEVLLIDTRNDYEVSIGTFEGAIDPKTTSFREFPDYIKAHFDPSKHKKVAMFCTGGIRCEKASSYMLSEGFDEVFHLKGGILKYLEEVPQQESKWQGDCFVFDNRVTVRHDLSEGDYDQCHACRTPVSVEDRASEHYVPGISCPHCWDKLSEKTRRSAIDRQKQIELAKARNMPHPIGYNYKQSSSEALEHHHHHH,not soluble
11,MAQSPFRRMTTPGGYQMSVAMTNCGERGWITDHTGYRYDPVDPRTGVPWPAMPPAFRDLARRAAEQGGFTGFAPDACLVNRYEPGTRLSLHQDKDELDYAAPIVSVSLGLPATFLFGGMARSDKPRRFRLVHGDVVVWGGASRLAYHGVAPLADGEHALLGRQRINLTFRKVLLEHHHHHH,soluble
12,MAQTVPYGIPLIKADKVQAQGFKGANVKVAVLDTGIQASHPDLNVVGGASFVAGEAYNTDGNGHGTHVAGTVAALDNTTGVLGVAPSVSLYAVKVLNSSGSGSYSGIVSGIEWATTNGMDVINMSLGGASGSTAMKQAVDNAYARGVVVVAAAGNSGNSGSTNTIGYPAKYDSVIAVGAVDSNSNRASFSSVGAELEVMAPGAGVYSTYPTNTYATLNGTSMASPHVAGAAALILSKHPNLSASQVRNRLSSTATYLGSSFYYGKGLINVEAAAQ,soluble
13,MARAIWKGAISFGLVHIPVALVSATTSNSVDFDWLDKRSMDPVGYKRINKVTGKEVTKENIVKGVLHEKDRYVVLSEEEIRSAHPKSTQTIDIFAFVDSQQIPLQNIDTPYFLTPDKRGEKVYALLRETLVDTQKVALANVVLHTREHLAAVMPLESALVMVILRWPADVRELDALELTEAVTDARLTKSERDMARRLVKDMSADWQPDQYHDTFQEKIMQLVQTKAGEGKIEDVETDPGEEERKSADVIDLTDLLRRSLAGKSSASKTRKPAAKDKVADKQSPKPKRPAVRKKTGKAS,not soluble
14,MARDGAVYACQSCGAVQTKWSGQCSACQSWNTLVEEVSAKPPGALSATKATRVRGLQFTGLESETAPPPRILTGVDEFDRVCGGGVVPGSALLIGGDPGVGKSTLLLQVCASAAARGVSCAYISGEEAVEQIRGRADRMGLAKANVSLAAETALRDILDGLKRDNFDLVVIDSIQTMWSDAHEAGPGTVTQVRACATELVRLAKKKGVAILLVGHVTKDGQIAGPRVVEHLVDAVLSFEGERGYPFRILRGAKNRFGATDEIGVFEMGDVGLREVKNPSALFLNEGGERAAGAAVFAGIEGSRPVLVEFQALVAPSAYGTPRRAVVGWDSGRLAMVLAVLEARCGLGFGDKDVYLNVAGGLRITEPAADLAAAAALASSALDVALPQDCVVFGELSLSGEVRPVSRMETRLKEAAKLGFGRALGPLAGLPEGGGALPVAGVARLTDAVRRIGDEIWTSLTLEHHHHHH,not soluble
15,MAREELRRHLVGLIERSRVVIFSKSYCPHSTRVKELFSSLGVECNVLELDQVDDGARVQEVLSEITNQKTVPNIFVNKVHVGGCDQTFQAYQSGLLQKLLQEDLAYDAENLYFQ,soluble
16,MARGLNRVFLIGALATRPDMRYTPAGLAILDLTLAGQDLLLSDNGGEREVSWYHRVRLLGRQAEMWGDLLDQGQLVFVEGRLEYRQWEREGERRSELQIRADFLDPLDDRGKERAEDSRGQPRLRAALNQVFLMGNLTRDPELRYTPQGTAVARLGLAVNERRQGAEERTHFVEVQAWRDLAEWAAELRKGDGLFVIGRLVNDSWTSSSGERRFQTRVEALRLERPTRGPAQAGGSRSREVQTGGVDIDEGLEDFPPEEELPF,soluble
17,MARKAESSNRLDDAARAGWLYYVAGRTQDEIASVMGISRQSAQRLVSLAMAERLIKVRLDHPIAACLEMAARLKEKYDLKHVDVVPSDPGSDSTTVGIAEAGAAEIERWLKSAEPVVLAIGTGRTLKATIDQLPSMECPQHRIVSLTGNIRLDGSAAYYNVIFSMADTIKARHFPMPLPVLVSSPEEREVLHKQSLVQIALELGAEADAAFVGVGELGPDAPLCEDGFLARDEMARLMAAGAAGEICGWMFDHEGVLLPDSINERVASVPLPPRDRASVIGIAKGRRKHEALRAALKGRIINGLVTDEATADYLLRV,not soluble
18,MARKALIEKAKRTPKFKVRAYTRCVRCGRARSVYRFFGLCRICLRELAHKGQLPGVRKASW,soluble
19,MARKLFTSESVTEGHPDKICDQISDAVLDAIFSQDPMARVACETAVTTGLVLVTGEITTNCYVDIPKIVRSTIREIGYDRAKYGFDCDTCAVLTSIDEQSPDIAMGVNKALEAKTGEMSDEEIEAIGAGDQGMMFGFACDETPELMPMPISLAHKLAMRLSQVRKNGTLNYLRPDGKSQVTVEYDGDKPVRVDTVLISTQHGPEVDYDTIKRDVIEHVIKPVIPAELLDSKTKYLVNPTGRFVIGGPQGDSGLTGRKIIVDTYGGYARHGGGAFSGKDPTKVDRSAAYAARYVAKNIVAAGLARKCEVQLAYAIGVARPVSVRVDTFGTGIIPEEKIESLVNKYFDLRPAGIIKTLDLRRPIYKQTAAYGHFGRTDIDLPWERTDKPKS,not soluble
20,MARLCTHTESGHYLMALDAGTGSVRAVIFDLQGKQIAVGQAEWQHLAVPDVPGSMEFDLAKNWQLACQCIRQALQKAAIPATAIAAVSACSMREGIVIYDSNGEPIWACANVDARAAHEVSELKELYDNTFEEEVYRCSGQTLALSAIPRLLWLAHHRPDIYHRASTVTMISDWMAFMLSGELAVDPSNAGTTGLLDLVTRNWKRSLLQMAGLRSDILSPVKETGTLLGHISQKAAEQCDLQAGTPVIVGGGDVQLGCLGLGVVRPAQTAVLGGTFWQQVVNLPAPVTDPNMNVRINPHVIPGMVQTESISFFTGLTMRWFRDAFCAEEKLIAERLGIDAYSLLEDMASRVPPGAYGVMPIFSDVMRFKRWYHAAPSFINLSIDPEKCNKATLFRALEENAAIVSACNLQQIAAFSGVQADSLVFAGGGSKGKLWSQILADVTGLTVHVPVVKEATALGCAIAAGVGVGVWPSLAETGEKLVRWDREHKPNPENFAVYQQAREKWQAVYQDQRALVDGGLTTSLWKAPGL,not soluble
21,MARPANTLQSLAELNGKAPSRRQLNIQHWNTAEGARVLFVEARELPMFDLRVTFAAGSSQDGGTPGLAALTNAMLNEGVAGKDVTAIAEGFEGLGADFGNGSYRDMAVASLRSLSAKDKREPALKLFTEVAGKPTFPEDALKRIKNQMLAGFEYEKQNPGKIAGKALFGKLYGDHPYAHPSDGTAESITGISLAQLRAFHAKAYTGGNAVIALVGDLSRAEAEAIAAQVSAGLPKGPALAAPAQPADAKAGLTHIDFPSKQTHLMLAELGIDRQDPDWPALSMGNQILGGGAFGTRLMSEVREKRGLTYGVYSVFSPMQVRGPFMINLQTRAELSEGTLKLVQGILADYLKTGPTQQELDDAKRELAGSFPLSNASNASIVGQLGAIGFYNLPLTWLEDFMQQSQALTVEQVKAAMNKHLSADKLVIVTVGPKVPQKPLEHHHHHH,not soluble
22,MARSLVFIAIALIAVVSAGPGDKDQPKPDHKKGPGGFHHFFPKFFGNVSEEGKKEIGALFKNQDLTLAEVDTKIAALAEKYGVAAAYKEHKAKEATNEAEAKKKTASVISNLSAVSAKLTAIHDNKSLTRKAQREAIAALRKEHEAEVAALDFIGKRSHGFGKHHGRHGKGNGKFFGKRGGNKMERKTAAQ,not soluble
23,MARTQYRAEEDDDEKVVDVINEDEEDENKSDIDEDFDEDEDEDEDKQESVKAALEKERKRGEALTNLERQAKRLGVSFDAAKAIKSGMSVEKAKNVVLTAAVSKSASLKLSTTAPHRDGTSKEKIHAKWETAWRAIK,not soluble
24,MARVEGELFKIARASLEAEPIAWRYRYVKKGVMDSQGELWVGDWKYVPKKEDCNDRPNYEIQALFTAPPVPVTSEELVKAVHFYEQLKRENPPASGNQINGLTMSVKRPAN,not soluble
